What follows are binders tested against T1, TNF-α (UniProt P01375 77-233, limits assumed) (assay: competition ELISA: sample vs plate-bound TNFRI190 for TNF-α, from IC50, relative to wild-type TNFRI171).
T1 construct: also called tumor necrosis factor; ligand
Experimental: Each well was washed three times with 300 μL of washing buffer (0.05% Tween-20, PBS, pH 7.4) and incubated at room temperature for 2 hours with 300 μL of a blocking buffer (5% skim milk, PBS, pH 7.4). Then, each well was washed as mentioned above. A sample of interest was diluted to concentrations of 500 nM, 125 nM, 31 nM, 7.8 nM, 1.9 nM, 0.48 nM, 0.12 nM, and 0.03 nM in series and loaded in an amount of 100 μL into each well in duplicate. To each well was added 100 μL of 50 ng/ml TNF-α, followed by incubation at room temperature for 2 hours. After the wells were washed with a washing buffer, 100 μg/mL anti-TNF-α antibody solution was diluted 1/1000, added in an amount of 100 μL per each well, and incubated at room temperature for 2 hours. After the plates were washed with a washing buffer, a substrate was added in an amount of 100 μL to each well and reacted at room temperature for 15 min. In each well, 100 μL of the substrate 3,3′,5,5′-tetramethylbenzidine (RnD, Cat. No: DY999) was reacted at room temperature for 15 min, followed by adding 50 μL of 1.0 M sulfuric acid (Samchun Chemical, Cat. No: 52129) to each well to stop the reaction.
The affinity of the Met-TNFRI for TNF-α was assayed using the same procedure as in [Experimental Example 1]

| Binder | Relative Affinity for Ligand (%) |
| --- | --- |
| TNFRI171-S41 (receptor, Met-TNFRI171 superlead mutant made in E. coli) MDSVCPQGKYIHPQNNSICCTKCHKGTYVYNDCPGPGQDTDCRECESGSFTAHENFLPACLSCSKCRKEMGQVEISSCTVDRDTVCGCRKNQYRHYWSENLFQCFNCSLCLNGTVHLSCQEKQNTVCTCHAGFFLRENECVSCSNCKKSLECTKLCLPQIENVKGTEDSGTT | 558% |
| TNFRI171-S42 (receptor, Met-TNFRI171 superlead mutant made in E. coli) MDSVCPQGKYIHPQNNSICCTKCHKGTYLYNDCPGPGQDTDCRECESGSFTAHENFLPACLSCSKCRKEMGQVEISSCTVDRDTVCGCRKNQYRHYWSENLFQCFNCSLCLNGTVHLSCQEQQNTVCTCHAGFFLRENECVSCSNCKKSLECTKLCLPQIENVKGTEDSGTT | 416% |
| TNFRI171-S49 (receptor, Met-TNFRI171 superlead mutant made in E. coli) MDSVCPQGKYIHPQNNSICCTKCHKGTYLYNDCPGPGQDTDCRECESGSFTAIPNFLPGCLSCSKCRKEMGQVEISSCTVDRDTVCGCRKNQYRHYWSENLFQCFNCSLCLNGTVHLSCQEQQNTVCTCHAGFFLRENECVSCSNCKKSLECTKLCLPQIENVKGTEDSGTT | 547% |
| TNFRI171-S53 (receptor, Met-TNFRI171 superlead mutant made in E. coli) MDSVCPQGKYIHPQNNSICCTKCHKGTYVYNDCPGPGQDTDCRECESGSFTAIENFLPACLSCSKCRKEMGQVEISSCTVDRDTVCGCRKNQYRHYWSENLFQCFNCSLCLNGTVHLSCQEQQNTVCTCHAGFFLRENECVSCSNCKKSLECTKLCLPQIENVKGTEDSGTT | 1020% |
| TNFRI171-S52 (receptor, Met-TNFRI171 superlead mutant made in E. coli) MDSVCPQGKYIHPQNNSICCTKCHKGTYLYNDCPGPGQDTDCRECESGSFTAIPNFLPGCLSCSKCRKEMGQVEISSCTVDRDTVCGCRKNQYRHYWSENLFQCFNCSLCLNGTVHLSCQEKQNTVCTCHAGFFLRENECVSCSNCKKSLECTKLCLPQIENVKGTENSGTT | 626% |
| TNFRI171-S51 (receptor, Met-TNFRI171 superlead mutant made in E. coli) MDSVCPQGKYIHPQNNSICCTKCHKGTYLYNDCPGPGQDTDCRECESGSFTAIPNFLPGCLSCSKCRKEMGQVEISSCTVDRDTVCGCRKNQYRHYWSENLFQCFNCSLCLNGTVHLSCQEKQNTVCTCHAGFFLRENECVSCSNCKKSLECTKLCLPQIQNVKGTEDSGTT | 537% |
| TNFRI171-S50 (receptor, Met-TNFRI171 superlead mutant made in E. coli) MDSVCPQGKYIHPQNNSICCTKCHKGTYLYNDCPGPGQDTDCRECESGSFTAIPNFLPGCLSCSKCRKEMGQVEISSCTVDRDTVCGCRKNQYRHYWSENLFQCFNCSLCLNGTVHLSCQENQNTVCTCHAGFFLRENECVSCSNCKKSLECTKLCLPQIENVKGTEDSGTT | 589% |
| TNFRI171-S45 (receptor, Met-TNFRI171 superlead mutant made in E. coli) MDSVCPQGKYIHPQNNSICCTKCHKGTYLYNDCPGPGQDTDCRECESGSFTAHENFLPACLSCSKCRKEMGQVEISSCTVDRDTVCGCRKNQYRHYWSENLFQCFNCSLCLNGTVHLSCQEKQNTVCTCHAGFFLRENECVSCSNCKKSLECTKLCLPQIENVKGTENSGTT | 679% |
| TNFRI171-S47 (receptor, Met-TNFRI171 superlead mutant made in E. coli) MDSVCPQGKYIHPQNNSICCTKCHKGTYVYNDCPGPGQDTDCRECESGSFTAMENFLPGCLSCSKCRKEMGQVEISSCTVDRDTVCGCRKNQYRHYWSENLFQCFNCSLCLNGTVHLSCQEKQNTVCTCHAGFFLRENECVSCSNCKKSLECTKLCLPQIENVKGTEDSGTT | 758% |
| TNFRI171-S48 (receptor, Met-TNFRI171 superlead mutant made in E. coli) MDSVCPQGKYIHPQNNSICCTKCHKGTYVYNDCPGPGQDTDCRECESGSFTAIPNFLPGCLSCSKCRKEMGQVEISSCTVDRDTVCGCRKNQYRHYWSENLFQCFNCSLCLNGTVHLSCQEKQNTVCTCHAGFFLRENECVSCSNCKKSLECTKLCLPQIENVKGTEDSGTT | 594% |
| TNFRI171-S44 (receptor, Met-TNFRI171 superlead mutant made in E. coli) MDSVCPQGKYIHPQNNSICCTKCHKGTYLYNDCPGPGQDTDCRECESGSFTAHENFLPACLSCSKCRKEMGQVEISSCTVDRDTVCGCRKNQYRHYWSENLFQCFNCSLCLNGTVHLSCQEKQNTVCTCHAGFFLRENECVSCSNCKKSLECTKLCLPQIQNVKGTEDSGTT | 694% |
| TNFRI171-S43 (receptor, Met-TNFRI171 superlead mutant made in E. coli) MDSVCPQGKYIHPQNNSICCTKCHKGTYLYNDCPGPGQDTDCRECESGSFTAHENFLPACLSCSKCRKEMGQVEISSCTVDRDTVCGCRKNQYRHYWSENLFQCFNCSLCLNGTVHLSCQENQNTVCTCHAGFFLRENECVSCSNCKKSLECTKLCLPQIENVKGTEDSGTT | 579% |
| TNFRI171-S46 (receptor, Met-TNFRI171 superlead mutant made in E. coli) MDSVCPQGKYIHPQNNSICCTKCHKGTYVYNDCPGPGQDTDCRECESGSFTAIENFLPGCLSCSKCRKEMGQVEISSCTVDRDTVCGCRKNQYRHYWSENLFQCFNCSLCLNGTVHLSCQEKQNTVCTCHAGFFLRENECVSCSNCKKSLECTKLCLPQIENVKGTEDSGTT | 805% |

More lines, now with the values ahead:

| Relative Affinity for Ligand (%) | Binder |
| --- | --- |
| 773% | TNFRI171-S57 (receptor, Met-TNFRI171 superlead mutant made in E. coli) MDSVCPQGKYIHPQNNSICCTKCHKGTYVYNDCPGPGQDTDCRECESGSFTAMENFLPACLSCSKCRKEMGQVEISSCTVDRDTVCGCRKNQYRHYWSENLFQCFNCSLCLNGTVHLSCQENQNTVCTCHAGFFLRENECVSCSNCKKSLECTKLCLPQIENVKGTEDSGTT |
| 775% | TNFRI171-S60 (receptor, Met-TNFRI171 superlead mutant made in E. coli) MDSVCPQGKYIHPQNNSICCTKCHKGTYVYNDCPGPGQDTDCRECESGSFTAHENFLPACLSCSKCRKEMGQVEISSCTVDRDTVCGCRKNQYRHYWSENLFQCFNCSLCLNGTVHLSCQENQNTVCTCHAGFFLRENECVSCSNCKKSLECTKLCLPQIENVKGTEDSGTT |
| 1350% | TNFRI171-S63 (receptor, Met-TNFRI171 superlead mutant made in E. coli; also called TNFRI-S63) MDSVCPQGKYIHPQNNSICCTKCHKGTYVYNDCPGPGQDTDCRECESGSFTAMENFLPGCLSCSKCRKEMGQVEISSCTVDRDTVCGCRKNQYRHYWSENLFQCFNCSLCLNGTVHLSCQENQNTVCTCHAGFFLRENECVSCSNCKKSLECTKLCLPQIENVKGTEDSGTT |
| 978% | TNFRI171-S58 (receptor, Met-TNFRI171 superlead mutant made in E. coli) MDSVCPQGKYIHPQNNSICCTKCHKGTYVYNDCPGPGQDTDCRECESGSFTAMENFLPACLSCSKCRKEMGQVEISSCTVDRDTVCGCRKNQYRHYWSENLFQCFNCSLCLNGTVHLSCQEKQNTVCTCHAGFFLRENECVSCSNCKKSLECTKLCLPQIENVKGTENSGTT |
| 973% | TNFRI171-S55 (receptor, Met-TNFRI171 superlead mutant made in E. coli) MDSVCPQGKYIHPQNNSICCTKCHKGTYVYNDCPGPGQDTDCRECESGSFTAIENFLPACLSCSKCRKEMGQVEISSCTVDRDTVCGCRKNQYRHYWSENLFQCFNCSLCLNGTVHLSCQEKQNTVCTCHAGFFLRENECVSCSNCKKSLECTKLCLPQIENVKGTENSGTT |
| 1200% | TNFRI171-S62 (receptor, Met-TNFRI171 superlead mutant made in E. coli) MDSVCPQGKYIHPQNNSICCTKCHKGTYVYNDCPGPGQDTDCRECESGSFTAIENFLPGCLSCSKCRKEMGQVEISSCTVDRDTVCGCRKNQYRHYWSENLFQCFNCSLCLNGTVHLSCQEQQNTVCTCHAGFFLRENECVSCSNCKKSLECTKLCLPQIENVKGTEDSGTT |
| 684% | TNFRI171-S59 (receptor, Met-TNFRI171 superlead mutant made in E. coli) MDSVCPQGKYIHPQNNSICCTKCHKGTYVYNDCPGPGQDTDCRECESGSFTAHENFLPACLSCSKCRKEMGQVEISSCTVDRDTVCGCRKNQYRHYWSENLFQCFNCSLCLNGTVHLSCQEQQNTVCTCHAGFFLRENECVSCSNCKKSLECTKLCLPQIENVKGTEDSGTT |
| 778% | TNFRI171-S61 (receptor, Met-TNFRI171 superlead mutant made in E. coli) MDSVCPQGKYIHPQNNSICCTKCHKGTYVYNDCPGPGQDTDCRECESGSFTAHENFLPACLSCSKCRKEMGQVEISSCTVDRDTVCGCRKNQYRHYWSENLFQCFNCSLCLNGTVHLSCQEKQNTVCTCHAGFFLRENECVSCSNCKKSLECTKLCLPQIENVKGTENSGTT |
| 900% | TNFRI171-S54 (receptor, Met-TNFRI171 superlead mutant made in E. coli) MDSVCPQGKYIHPQNNSICCTKCHKGTYVYNDCPGPGQDTDCRECESGSFTAIENFLPACLSCSKCRKEMGQVEISSCTVDRDTVCGCRKNQYRHYWSENLFQCFNCSLCLNGTVHLSCQENQNTVCTCHAGFFLRENECVSCSNCKKSLECTKLCLPQIENVKGTEDSGTT |
| 510% | TNFRI171-S56 (receptor, Met-TNFRI171 superlead mutant made in E. coli) MDSVCPQGKYIHPQNNSICCTKCHKGTYVYNDCPGPGQDTDCRECESGSFTAMENFLPACLSCSKCRKEMGQVEISSCTVDRDTVCGCRKNQYRHYWSENLFQCFNCSLCLNGTVHLSCQEQQNTVCTCHAGFFLRENECVSCSNCKKSLECTKLCLPQIENVKGTEDSGTT |
